Source: paper PMC7866390, “A Novel Multiprotein Bridging Factor 1-Like Protein Induces Cyst Wall Protein Gene Expression and Cyst Differentiation in Giardia lamblia”

What follows are binders tested against T1, MBF1 (Giardia lamblia, UniProt A8BZ03 1-107) (assay: EMSA; EMSA, 5 ng purified protein, 5'-end-labeled ds oligonucleotides, 6% polyacrylamide gel; buffer, salt, pH and temperature not given (cited to ref 19)). Settings: protein: recombinant; tags: C-terminal V5 and His (pET101/D-TOPO).
T1 sequence: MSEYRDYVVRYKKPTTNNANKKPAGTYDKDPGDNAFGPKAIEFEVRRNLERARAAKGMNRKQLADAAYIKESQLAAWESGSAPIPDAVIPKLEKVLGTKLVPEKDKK

Row | Binder | binding result
1 | 18S-30/-1 (dsDNA) DNA 1: GGCGCCCGGCCCGCGGCGCCCGCGCCCGGC DNA 2: GCCGGGCGCGGGCGCCGCGGGCCGGGCGCC | no binding

Same assay, conditions: protein: recombinant; tags: C-terminal V5 and His (pET101/D-TOPO); label: 5'-32P

Row | Binder | binding result
2 | poly(A) with TT insertion (dsDNA) DNA 1: AAAAAAAAAAATTAAAAAAAAAA DNA 2: TTTTTTTTTTAATTTTTTTTTTT | binds
3 | cwp2-30/+8 (dsDNA) DNA 1: CAGCAGCTCAACAGTGGCTGGGAAAATAAAATGATCGC DNA 2: GCGATCATTTTATTTTCCCAGCCACTGTTGAGCTGCTG | binds
4 | myb2-30/-1 (dsDNA) DNA 1: TACTAAAATAATAATTACTCTGTACTGCTA DNA 2: TAGCAGTACAGAGTAATTATTATTTTAGTA | binds
5 | ran-51/-20 (dsDNA) DNA 1: TAAAATAAATTAAATCGAAATTAAAACTTTAA DNA 2: TTAAAGTTTTAATTTCGATTTAATTTATTTTA | binds
6 | poly(A) with T insertion (dsDNA) DNA 1: AAAAAAAAAAATAAAAAAAAAAA DNA 2: TTTTTTTTTTTATTTTTTTTTTT | binds
7 | cwp1-90/-46 (dsDNA) DNA 1: CTGGCTAACAGTCTACAGTCTACAATTTACAGTATACAATCTACA DNA 2: TGTAGATTGTATACTGTAAATTGTAGACTGTAGACTGTTAGCCAG | binds
8 | cwp2-60/-31 (dsDNA) DNA 1: TAGACTGATGCTGTAGAGGTCAACAGATAA DNA 2: TTATCTGTTGACCTCTACAGCATCAGTCTA | binds
9 | poly(A) (dsDNA) DNA 1: AAAAAAAAAAAAAAAAAAAAAAA DNA 2: TTTTTTTTTTTTTTTTTTTTTTT | binds
10 | cwp3-60/-31 (dsDNA) DNA 1: GTAGACTTTGAGTTACTTAGCTCTACAGTT DNA 2: AACTGTAGAGCTAAGTAACTCAAAGTCTAC | binds

The binders below were run against T1, MBF1 (assay: EMSA; supershifted by anti-V5-HRP; competed by 200-fold cold cwp1-45/-1; EMSA, 5 ng purified protein, 5'-end-labeled ds oligonucleotides, 6% polyacrylamide gel; buffer, salt, pH and temperature not given (cited to ref 19)). Settings: protein: recombinant; tags: C-terminal V5 and His (pET101/D-TOPO); label: 5'-32P.

Row | Binder | binding result
11 | cwp1-45/-1 (dsDNA) DNA 1: GTTTACAACTCTCAGATCAAGAAACACAGAAATAAAATATCAGGG DNA 2: CCCTGATATTTTATTTCTGTGTTTCTTGATCTGAGAGTTGTAAAC | binds
